Reference: patent US20040005636A1, “Method for obtaining the binding affinities of a peptide library to a protein” (priority 2002, published 2004)
Ends that are not written are not given here.

Legend:
[1] = biological target: T1, hERα-LBD (ligand binding domain of estrogen receptor α) (human, UniProt P03372 297-554); assay: fluorescence polarization, hERα-LBD titrated, estradiol present; repeats Table 4; 100 may stand for above the assay limits
T1 construct: Assayed with estradiol, diethylstilbestrol, genistein or tamoxifen present; the ligand is named under assay in each row
T1 sequence (looked up): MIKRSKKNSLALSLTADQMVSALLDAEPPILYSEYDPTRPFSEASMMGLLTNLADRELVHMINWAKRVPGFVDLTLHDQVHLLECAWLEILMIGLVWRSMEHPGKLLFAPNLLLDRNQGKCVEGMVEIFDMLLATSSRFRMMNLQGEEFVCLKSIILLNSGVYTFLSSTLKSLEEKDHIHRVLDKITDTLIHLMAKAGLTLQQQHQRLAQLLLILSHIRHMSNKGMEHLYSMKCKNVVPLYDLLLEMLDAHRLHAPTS
Experimental: (§1) The concentration of protein varied between 0.001-20 μM in the following way. In 96 well plates, hTRβ-LBD or hERα-LBD was serially diluted from 40 μM to 0.002 μM in binding buffer (50 mM Sodium Phosphate, 150 mM NaCl, pH 7.2, 1 mM DTT, 1 mM EDTA, 0.01% NP40, 10% glycerol), containing 200 μM ligand (T₃, for TRβ, or estradiol, diethylstilbestrol, genistein or tamoxifen for ERα).
(§2) Subsequently 10 μL of diluted protein was added to 10 μL of fluorescent coregulator peptide (20 nM) in 384-well plates yielding final protein concentrations of […] and 10 nM fluorescent peptide concentration. The samples were allowed to equilibriate for 30 minutes. Binding was then measured using fluorescence polarization (excitation λ at 485 nm, emission λ at 530 nm) on an Analyst AD (available from Molecular Devices).
(§3) All experiments were carried out in quadruplicate, with each iteration containing the positive and negative controls, and 10-12 dose points. The data were then fit using Klotz plots to determine IC₅₀ values using nonlinear regression analysis that fits the data to a modification of the model of Heyduk and Lee. (Heyduk et al., Proc. Natl. Acad. Sci., (1990), 1774; Heyduk et al., Nature, (1993), 364, 6437; Heyduk et al., Methods Enzymol., 274, 492. Further analysis was conducted using Hill and Scatchard plots to confirm number and homogeneity of binding sites as discussed hereinbelow.

[2] = biological target: T2, hTRβ-LBD (ligand binding domain of thyroid hormone receptor β) (human, UniProt P10828 202-461); assay: fluorescence polarization, hTRβ-LBD titrated, T3 present; Table 3 prints >AL (assay limits) for this pair
T2 construct: Assayed with the small-molecule ligand T3 present
T2 sequence (looked up): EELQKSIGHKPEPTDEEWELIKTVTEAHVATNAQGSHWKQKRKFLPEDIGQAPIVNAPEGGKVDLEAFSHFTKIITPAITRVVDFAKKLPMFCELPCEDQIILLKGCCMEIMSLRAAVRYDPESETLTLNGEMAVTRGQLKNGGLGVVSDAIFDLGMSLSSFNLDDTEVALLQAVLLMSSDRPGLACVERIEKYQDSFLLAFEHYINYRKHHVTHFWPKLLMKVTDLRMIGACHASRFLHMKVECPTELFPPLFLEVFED
Experimental: as §1, §2, §3

[3] = biological target: T1, hERα-LBD (ligand binding domain of …); assay: fluorescence polarization, labelled peptide 10 nM, hERα-LBD titrated, diethylstilbestrol present; 100 may stand for above the assay limits
Experimental: as §1, §2, §3

[4] = biological target: T1, hERα-LBD (ligand binding domain of …); assay: fluorescence polarization, labelled peptide 10 nM, hERα-LBD titrated, estradiol present; 100 may stand for above the assay limits
Experimental: as §1, §2, §3

[5] = biological target: T1, hERα-LBD (ligand binding domain of …); assay: fluorescence polarization, labelled peptide 10 nM, hERα-LBD titrated, genistein present; 100 may stand for above the assay limits
Experimental: as §1, §2, §3

Measured: Kd

C(5‑iodoacetamidofluorescein)KKENNALLRYLLDRDDPSD [SRC3-3 coregulator peptide]
100 µM: [1] | [2] | [3] | [4] | [5]
